Among the data in PMC5012629 (International Journal of Nanomedicine, 2016) are koff and Kd values, retold here.

Assay [1] concerns the target T1, Full length untagged human MDM2 (Murine double minute 2) (human, UniProt Q00987 1-491). The assay is described as follows: atomic force spectroscopy.
Assay [2] addresses T1, Full length untagged human MDM2 (Murine …). The assay is described as follows: SPR. (In general: Surface plasmon resonance follows binding to a sensor surface in real time, without labels.)

Usually koff stands for the first-order rate constant of dissociation. Higher therefore signals fast dissociation. As usually defined, the Kd is the constant that tells how readily two partners part at equilibrium. Read a high Kd as lower affinity.

T1 sequence (Q00987 whole entry): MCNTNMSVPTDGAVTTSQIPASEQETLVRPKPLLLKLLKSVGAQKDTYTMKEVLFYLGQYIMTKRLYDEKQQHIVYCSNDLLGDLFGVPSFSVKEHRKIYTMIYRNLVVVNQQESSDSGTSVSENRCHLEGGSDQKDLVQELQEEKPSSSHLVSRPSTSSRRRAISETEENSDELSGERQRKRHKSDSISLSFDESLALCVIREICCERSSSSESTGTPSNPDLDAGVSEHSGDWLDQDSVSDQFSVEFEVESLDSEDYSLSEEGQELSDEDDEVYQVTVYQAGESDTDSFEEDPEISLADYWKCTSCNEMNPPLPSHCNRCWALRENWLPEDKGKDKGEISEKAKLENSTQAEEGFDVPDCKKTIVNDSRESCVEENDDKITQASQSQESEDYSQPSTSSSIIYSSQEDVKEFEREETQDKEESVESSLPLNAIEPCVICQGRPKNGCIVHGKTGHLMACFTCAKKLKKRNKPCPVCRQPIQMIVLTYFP

B1: Full length N-terminal glutathione S-transferase (GST)-tagged human MDM4 (Murine double minute 4) (natural protein, UniProt O15151 1-490, looked up)
chain: MTSFSTSAQCSTSDSACRISPGQINQVRPKLPLLKILHAAGAQGEMFTVKEVMHYLGQYIMVKQLYDQQEQHMVYCGGDLLGELLGRQSFSVKDPSPLYDMLRKNLVTLATATTDAAQTLALAQDHSMDIPSQDQLKQSAEESSTSRKRTTEDDIPTLPTSEHKCIHSREDEDLIENLAQDETSRLDLGFEEWDVAGLPWWFLGNLRSNYTPRSNGSTDLQTNQDVGTAIVSDTTDDLWFLNESVSEQLGVGIKVEAADTEQTSEEVGKVSDKKVIEVGKNDDLEDSKSLSDDTDVEVTSEDEWQCTECKKFNSPSKRYCFRCWALRKDWYSDCSKLTHSLSTSDITAIPEKENEGNDVPDCRRTISAPVVRPKDAYIKKENSKLFDPCNSVEFLDLAHSSESQETISSMGEQLDNLSEQRTDTENMEDCQNLLKPCSLCEKRPRDGNIIHGRTGHLVTCFHCARRLKKAGASCPICKKEIQLVIKVFIA
In assay [1], B1 came in with a koff of 0.02 ± 0.01 s⁻¹. Besides, the Kd in assay [2] came to 2000 nM.
